Results from patent US20240166737A1 (Janssen / Centocor, published 2024).

Columns and labels:
[1] = target: T1, MSNW10, recombinant full length human MSLN (human, UniProt Q13421 296-598); assay: SPR, additional experiments
T1 construct: also called MSNW10.002; FL-MSLN

[2] = target: T2, 14 AA stub (a.a. 290-303 of SEQ ID NO: 247) (human); assay: SPR, mAb captured, peptide injected
T2 peptide: GYLVLDLSMQEALS
Protocol: (§1) The binding was assessed by SPR. Briefly, GAH-Fc was used to capture mAbs on C4 sensor chip followed by antigen injection starting at 30 nM (14 amino acid stub), 100 nM (10-13 amino acid stubs), or 1000 nM (7-9 amino acid stubs) progressing in a 3-fold dilution series in single cycle kinetics mode. HBSP+0.01% BSA was used in the assay.

[3] = target: T3, 13 AA stub (a.a. 291-303 of SEQ ID NO: 247) (human); assay: SPR, mAb captured, peptide injected
T3 peptide: YLVLDLSMQEALS
Protocol: as §1

[4] = target: T4, 12 AA stub region peptide LVLDLSMQEALS (human); assay: SPR, mAb captured, peptide injected
T4 construct: free N-terminus; also called 12 AA Peptide
T4 peptide: LVLDLSMQEALS
Protocol: as §1

[5] = target: T5, 11 AA stub (a.a. 293-303 of SEQ ID NO: 247) (human); assay: SPR, mAb captured, peptide injected
T5 peptide: VLDLSMQEALS
Protocol: as §1

[6] = target: T6, 10 AA stub (a.a. 294-303 of SEQ ID NO: 247) (human); assay: SPR, mAb captured, peptide injected
T6 peptide: LDLSMQEALS
Protocol: as §1

[7] = target: T7, 9 AA stub (a.a. 295-303 of SEQ ID NO: 247) (human); assay: SPR, mAb captured, peptide injected
T7 peptide: DLSMQEALS
Protocol: as §1

[8] = target: T8, 8 AA stub (a.a. 296-303 of SEQ ID NO: 247) (human); assay: SPR, mAb captured, peptide injected
T8 construct: also called 8 AA Peptide; peptide of the last 8 C-terminal amino acids
T8 peptide: LSMQEALS
Protocol: as §1

[9] = target: T9, 7 AA stub (a.a. 297-303 of SEQ ID NO: 247) (human); assay: SPR, mAb captured, peptide injected
T9 peptide: SMQEALS
Protocol: as §1

[10] = target: T10, MSNW11, recombinant soluble (shed) MSLN lacking the C-terminal 7 AAs (human, UniProt Q13421 296-591); assay: H838 cell binding with shed MSLN (MSNW11) added
T10 construct: domain: soluble MSLN lacking the C-terminal 7 AAs; also called MSNW11.002; soluble MSLN
T10 sequence (Q13421 other isoform, or with tags, fused parts or gaps limits assumed): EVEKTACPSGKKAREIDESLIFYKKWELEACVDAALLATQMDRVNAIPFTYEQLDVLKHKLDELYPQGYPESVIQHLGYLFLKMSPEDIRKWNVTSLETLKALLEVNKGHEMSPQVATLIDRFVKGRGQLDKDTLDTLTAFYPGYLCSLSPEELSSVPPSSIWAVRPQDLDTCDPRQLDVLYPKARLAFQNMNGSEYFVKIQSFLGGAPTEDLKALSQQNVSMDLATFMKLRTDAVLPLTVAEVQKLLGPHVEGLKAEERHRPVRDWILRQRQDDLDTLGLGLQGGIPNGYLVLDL
Text: Table 16 lists the immunization campaigns, antigens used, and number of clones returned at each stage of screening. Clones from which antibody sequences were successfully recovered were first screened for binding to recombinant full length human MSLN (MSNW10) and H838 cells that express MSLN on the cell surface. Binders were further screened for binding to cells in the presence of recombinant soluble MSLN lacking the C-terminal 7 AAs (MSNW11). This form of recombinant MSLN represented the product of cleavage at the closest cleavage site to the C-terminus known at the time, therefore, it theoretically represented the longest form of shed MSLN. The final concentration of shed MSLN in the assays was 100 nM.

[11] = target: T11, CD3 epsilon on human T-cells (human, UniProt P07766 23-207); assay: cell-based or functional assay
T11 sequence (P07766 23-207 limits assumed): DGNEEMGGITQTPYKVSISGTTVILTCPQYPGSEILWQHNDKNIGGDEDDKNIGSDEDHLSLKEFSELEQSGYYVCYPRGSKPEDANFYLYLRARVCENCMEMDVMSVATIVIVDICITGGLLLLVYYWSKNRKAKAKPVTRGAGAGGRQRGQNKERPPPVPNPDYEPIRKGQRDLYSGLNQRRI

[12] = target: T11, CD3 epsilon on human T-cells; assay: cell-based or functional assay; remark: listed apart in the source
[13] = target: T11, CD3 epsilon on human T-cells; assay: T-cell binding assay, FIG. 15
[14] = target: T12, human MSLN on the cell surface (human, UniProt Q13421 296-598); assay: flow cytometry (MFI PE) on OVCAR-8 cells
T12 construct: on cells stands the processed GPI-anchored 40 kDa MSLN; also called membrane MSLN; MSLN on H838, OVCAR-8 (OVCAR8), OVCAR-8 K1/C8, SK-OV-3 cells
T12 sequence (Q13421 other isoform, or with tags, fused parts or gaps limits assumed): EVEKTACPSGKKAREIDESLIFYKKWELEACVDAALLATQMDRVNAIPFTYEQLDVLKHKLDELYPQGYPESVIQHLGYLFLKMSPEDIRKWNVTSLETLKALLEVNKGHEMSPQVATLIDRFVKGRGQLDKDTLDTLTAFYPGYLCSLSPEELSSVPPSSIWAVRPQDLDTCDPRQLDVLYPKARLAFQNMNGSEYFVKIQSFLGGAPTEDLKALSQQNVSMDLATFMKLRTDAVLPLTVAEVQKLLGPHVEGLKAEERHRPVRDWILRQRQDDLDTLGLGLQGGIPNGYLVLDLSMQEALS

B1: MSLNB591 (antibody, V domains shown)
VH: QVQLQQSGPGLVKPSQTLSLTCGISGDSVSSSSVAWNWIRQSPSRGLEWLGRTYYRSKWYNDYAISVRSRVTINPDTSKNQFSLQLNSVTPEDTAVYYCSRGVVGALDYWGQGTLVTVSS
VL: DIVMTQSPLSLTVTPGEPASISCRSSQSLLFTNGYNSLDWYLQKPGQSPQFLIYLVSNRASGVPDRFSGSGSGTDFTLKISRVEAEDVGVYYCMQALRTPYTFGQGTKVDIK
notes: mAb; also called MSNB591
For B1, the Kd [1] was 0.3 nM, the Kd [2] was 0.563 nM and the Kd [3] was 1.08 nM. The Kd [4] was 2.04 nM, the binding result [5] was “no binding (tested: 100 nM)” and the binding result [6] was “no binding (tested: 100 nM)”. B1: no binding (tested: 1000 nM) [7]; no binding (tested: 1000 nM) [8]; no binding (tested: 1000 nM) [9]. B1: no binding (tested: 100 nM) [10].

B2: MNC3B55 (bispecific antibody)
scFv: EVQLVESGGGLVKPGGSLRLSCAASGFTFSRYNMNWVRQAPGKGLEWVSSISTSSNYIYYADSVKGRFTFSRDNAKNSLDLQMSGLRAEDTAIYYCTRGWGPFDYWGQGTLVTVSSGGSEGKSSGSGSESKSTGGSDIQMTQSPSSLSASVGDRVTITCRARQSIGTAIHWYQQKPGKAPKLLIKYASESISGVPSRFSGSGSGTDFTLTISSLQPEDFATYYCQQSGSWPYTFGQGTKLEIK
VH: QVQLVESGPGQVKPSQTLSLTCAISGDSVSSNSAAWNWIRQSPSRGLEWLGRTYYRSKWYNDYAVSVKSRITINPDTSKNQFSLQLNSVTPEDTAVYYCARRDYSSGGFDYWGQGTTVTVSS
VL: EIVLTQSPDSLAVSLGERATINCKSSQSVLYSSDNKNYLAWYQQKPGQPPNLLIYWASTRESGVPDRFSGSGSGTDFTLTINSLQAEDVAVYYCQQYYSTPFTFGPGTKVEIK
For B2, the “cytotoxicity EC50, NCI-H838 cells, pan T-cells 5:1 E:T, 48 hours” value [11] was 0.027 nM.

B3: MNC3B193 (bispecific antibody)
scFv: DIQMTQSPSSLSASVGDRVTITCRARQSIGTAIHWYQQKPGKAPKLLIKYASESISGVPSRFSGSGSGTDFTLTISSLQPEDFATYYCQQSGSWPYTFGQGTKLEIKGGSEGKSSGSGSESKSTGGSEVQLVESGGGLVKPGGSLRLSCAASGFTFSRYNMNWVRQAPGKGLEWVSSISTSSNYIYYADSVKGRFTFSRDNAKNSLDLQMSGLRAEDTAIYYCTRGWGPFDYWGQGTLVTVSS
VH: QVQLVESGPGQVKPSQTLSLTCAISGDSVSSNSAAWNWIRQSPSRGLEWLGRTYYRSKWYNDYAVSVKSRITINPDTSKNQFSLQLNSVTPEDTAVYYCARRDYSSGGFDYWGQGTTVTVSS
VL: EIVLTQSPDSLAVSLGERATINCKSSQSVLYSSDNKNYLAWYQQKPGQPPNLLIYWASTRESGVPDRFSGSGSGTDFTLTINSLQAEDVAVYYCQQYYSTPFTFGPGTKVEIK
notes: Bipod: MSNB457 Fab x CD3W245 LH scFv-Fc; also called CD3W245 LH containing Bipod
For B3, the “AC90 [nM], cytotoxicity, 1:1 E:T, 72 hours” value [12] was 0.25 nM, the “Max. Activity, cytotoxicity, 1:1 E:T, 72 hours” value [12] was 91% and the “qAC50 [nM], cytotoxicity, 1:1 E:T, 72 hours” value [12] was 0.1 nM. For the same binder, the EC50 [13] was 46 nM and the “EC50 (read off the curve)” value [14] was roughly 8 nM.
